Data on one molecule can be found in US20230093399A1, “METHODS FOR GENERATING PLURIPOTENT STEM CELL-DERIVED BROWN FAT CELLS” (AgeX Therapeutics, Inc., priority 2013, published 2023).

One test relates to cell line E3. The experiment in a line: Differentiation of clonal hEP cell line E3 in HyStem beads, Illumina microarray gene expression. The format is cell-based, human. The following applies: E3. Here is the method:
(§1) Differentiation medium is high glucose DMEM (CellGro Cat. No. 15-013-CV) with Pyruvate, 1 mM (Gibco Cat. 11360), Pen:Strep 100U/ml:100 ug/ml (Gibco Cat. No. 504284), Glutamax 2 mM (Gibco Cat. No. 35050), Dexamethasone 0.1 uM (Sigma, St. Louis, Mo., Cat. No. D1756-100), L-Proline 0.35 mM (Sigma Cat. No. D49752), 2-phospho-L-Ascorbic Acid 0.17 mM (Sigma, Cat. No. 49792, Fluka), and ITS Premix (BD, Franklin Lakes, N.J., sterile Cat. No. 47743-628) with a final concentration 6.25 ug/ml insulin, 6.25 ug/ml transferrin, 6.25 ng/ml selenious acid, serum albumin 1.25 mg/ml, 5.35 ug/ml linoleic acid. In various differentiation conditions, the Differentiation medium is supplemented with various growth factors or other differentiation factors as described herein.
(§2) The Gelin-S® component (10 mg of thiol-modified gelatin (BioTime)) is dissolved in 1.0 ml of degassed deionized water to prepare a 1% w/v solution, and polyethylene glycol diacrylate (10 mg of PEGDA) is dissolved in 0.5 ml of degassed deionized water to prepare a 2% w/v solution. Then, HyStem (1 ml, 1% w/v) is mixed with Gelin-S (1 ml, 1% w/v) immediately before use. Pelleted cells are resuspended in the recently prepared HyStem:Gelin-S (1:1 v/v) mix described above. Upon the addition of the PEGDA cross-linker, the cell suspension, at a final concentration of 2.0×10^7 cells/ml is aliquoted (25 μl/aliquot) into six-well plates (Corning® 3516; VWR, PA, USA) after partial gelation. Following complete gelation (20 min), Differentiation Medium is added to each well. Plates were then placed in a humidified incubator at 37° C. with ambient O2 and 10% CO2, and the cells were fed three-times weekly. At the desired time point, hydrogel constructs were either fixed and processed for immunohistochemical analysis or lysed using RLT (Qiagen, CA, USA) with 1% beta-mercaptoethanol for total RNA to analyze transcript expression using quantitative real-time PCR (qRT-PCR) and/or whole-genome microarray.
(§3) Total RNA was extracted directly from cells growing in 6-well plates or 10 cm tissue culture dishes using Qiagen RNeasy mini kits according to the manufacturer's instructions. RNA concentrations were measured using a Beckman DU530 or Nanodrop spectrophotometer and RNA quality was determined by denaturing agarose gel electrophoresis or using an Agilent 2100 bioanalyzer. Whole-genome expression analysis was carried out using Illumina Human Ref-8v3 or Human HT-12 v4 BeadArrays, and RNA levels for certain genes were confirmed by qRT-PCR. For the Illumina BeadArrays, total RNA was linearly amplified and biotin-labeled using Illumina TotalPrep kits (Life Technologies, Temecula, Calif., USA), and cRNA was quality-controlled using an Agilent 2100 Bioanalyzer. The cRNA was hybridized to Illumina BeadChips, processed, and read using a BeadStation array reader according to the manufacturer's instructions (Illumina, San Diego, Calif., USA). Values of less than 120 relative fluorescence units (RFUs) were considered as nonspecific background signal.

A further test relates to NP110SM cells. As to the kind of experiment: Differentiation of clonal embryonic progenitor line NP110SM in HyStem beads, Illumina microarray gene expression. Type of test: cell-based, human. Here is the method:
as §1
as §2, with “HyStem-C (BioTime, Inc. Alameda, Calif.) is a matrix composed of thiol-modified gelatin and thiolated hyaluronan crosslinked in vivo or in vitro with (polyethylene glycol diacrylate (PEGDA). We observed that clonal human embryonic progenitor cell lines such as those described in the present invention, could be efficiently differentiated in high-density cultures of said crosslinked collagen and hyaluronate in the following manner. HyStem-C® (BioTime, CA, USA) is reconstituted following the manufacturer's instructions. Briefly, the HyStem component (10 mg of thiol-modified hyaluronan) is dissolved in 1.0 ml of degassed deionized water for approximately 20 min to prepare a 1% w/v solution. The Gelin-S®” for “The Gelin-S®”
as §3
The line NP110SM was then exposed to differentiation in the BAT cell differentiation protocols described herein. […]

The mark [1] stands for this setting: NP110SM, 14 days HyStem beads, 50 ng/ml BMP4, FIG. 15 sample 6.

B1: BMP4: Bone Morphogenetic Protein 4, TGF-beta superfamily member (protein, UniProt P12644 293-408, looked up)
Bone morphogenetic protein 4: SPKHHSQRARKKNKNCRRHSLYVDFSDVGWNDWIVAPPGYQAFYCHGDCPFPLADHLNSTNHAIVQTLVNSVNSSIPKACCVPTELSAISMLYLDEYDKVVLKNYQEMVVEGCGCR
As for B1, in the test on cell line E3 (HyStem beads supplemented with 10 ng/ml BMP4, FIG. 2), the “expression of C19ORF80 transcript” value is listed as “highest expression”. In addition, the PCK1 transcript expression entry in the test with cell line E3 (HyStem beads with 10 ng/ml BMP4 or 100 ng/ml BMP7, FIG. 5) is given as “relatively high levels”. In addition, in the test with NP110SM cells (NP110SM, 50 ng/ml of BMP4, 5 μm rosiglitazone, embedded in HyStem beads, 14-21 days), the “viability as measured by RNA yields and levels of the BAT markers” value is on record as “highest viability”. For the same molecule, in the test with NP110SM cells (setting [1]), the ADIPOQ expression result is “markedly up-regulating”, the C19ORF80 expression entry is on record as “markedly up-regulating” and the UCP1 expression result was “low or undetectable level”. The “expression of C19ORF80 transcript” value with NP110SM cells (NP110SM, HyStem beads supplemented with 10 ng/ml BMP4, FIG. 2) is reported as “highest expression”. In addition, in the test with NP110SM cells (addition of 50 ng/ml BMP4 to 5.0 μM rosiglitazone), the “viability of differentiating NP110SM cells as evidenced by RNA yields” value was “appeared to improve the viability”.
